The domain aggregation screens of Martell et al. (2025)
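Also: 20 min heating vs room temperature control held 20 min.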

Test: soluble fraction after stress (log2 fold change); higher = more stays soluble; pooled small domains, quantitative proteomics
Conditions: stress: 75 degC
In the case of “HMPVTAQFDFSKVLAGRTLKDGEFSFVLKDKNGTVLQTKTNDASGKVAFDALIYKNNEVGEHKYTVEEVI”, the “soluble fraction (log2)” value is reported as 0.237.
With “HMPVVKIPFILTEGPSSITKVIEIDADEILELKDVFQEDDKLWSINQIEMNDGRYVKHSDASLIVRASALR” the “soluble fraction (log2)” value was 0.233.
In the case of “HMPYHSEAWHKVMKSHWLTLSREEAYMHEGRTGASTINIVFQRELGREATQEEIESIYQEKSVLFNSYP”, the “soluble fraction (log2)” value is reported as -1.52.
With “HMPYLVNGFILEVQSDDNNPVGTLKRRYAVAKNKQGVILLEGEKSFSSNDQILINELKFYIQSNDLKA” the “soluble fraction (log2)” value was -2.56.
In the case of “HMPYSKIALQISHLLKSHGVPLSNKQIYEKLINDFQLSINYSNLTNNILPRMNSDSSINVEKVTRGYWQY”, the “soluble fraction (log2)” value is reported as -0.931.
With “HMQADKYKSYTATDFLKDKDFLRWQLFNGEEDMLFWGRVIEEYPALRSRVEEGIVLYKDNIR” the “soluble fraction (log2)” value was -0.711.
For “HMQADTATITGNGVNMRSGPGTNYQIIDTIPKGTVAEVLSQQDGWVKIYSARISGWVSASYVEIKQT”, the “soluble fraction (log2)” value was -2.5.
With “HMQAGNAVEQYPTIGRLEEVTLGRSQPGAPIGERLSTLETVVFKRNFNDDSLFDRTERLKKTILGG” the “soluble fraction (log2)” value was -0.104.
For “HMQAKQVAIPDVANYSVTDAIKKLQDAGFIVSDEQREEANETVSEGKVSRTSPAAGSIRKEGTEIILYKSL”, the “soluble fraction (log2)” value was 0.361.
With “HMQALDETTVSRIRQKAAARNLLLKVLAGQLGVARPTLSNVLARREAPSAALAARIRAFLDSP” the “soluble fraction (log2)” value was -1.45.
For “HMQALTLVGQDAKDAKAALDAVDIQPAKTETDRYIYVLTEQQAQELGRTVDALYGVEGSLTLILEV”, the “soluble fraction (log2)” value was 0.253.
For “HMQAQQYYMLLMNKATSALKIEALGANSNKAHQSFGTKTAGGSAVYWGILFNSNGKIYKIVG”, the “soluble fraction (log2)” value was -3.06.
In the case of “HMQASIPQSQKDALAKELQALPPHGRNRVLSTFRQQFNISSEKISEFITTPEHLSFIRSKIAEVESDS”, the “soluble fraction (log2)” value is reported as 0.267.
With “HMQDENAVTYLLEIKNADANDIASVLKTLKSPDADVVVYKTLNMIIFTGQGSEINGLVKVARQLDRK” the “soluble fraction (log2)” value was -2.04.
In the case of “HMQDGVNLENIEQKLSTLGVGKAQYFLQNVGGNKFNAYMALNTDGVEGYQKGSDTLIEIKNVE”, the “soluble fraction (log2)” value is reported as 0.215.
For “HMQDKIWVVDETQLYPKLIEAMSEGKAVIHDGVAYWAEGSGKTGVIQHLPFKETTVQNVEEAIKLAQ”, the “soluble fraction (log2)” value was 0.0953.
With “HMQDKLLRKKEVLEMVSITNSTMYRMIGSGQFPRPIRLDNANINSGVRWKLSEINTFIEQRF” the “soluble fraction (log2)” value was -0.513.
For “HMQDLAKRWVEEFGDLLYKYTLPRVSDSGIAKDLVQETFLAAWRNIDNFKGEASEKNWLFTILKNKIIDH”, the “soluble fraction (log2)” value was -0.382.
With “HMQDLTAQQQAILSFLKEHPKATRKEISENIPNITEDNIRYNLSQLQELGFVKSMGDSFIRIAI” the “soluble fraction (log2)” value was 0.534.
With “HMQDNDLKNQIENVLRTYPDNVFTVEKIADVLRSHGSAAFKLIVQELASLERDKVAVVTEDGKFQLNPD” the “soluble fraction (log2)” value was 0.261.
With “HMQDPTAVISRVLEERKHQPGALLPILHGIQDALGYVPREAVAQIAQALNLSRAEIHGVVSFYHHFR” the “soluble fraction (log2)” value was -0.59.
In the case of “HMQDPVWVDWLGENDWFQKDPKRRGLANGYSEILRAEQPELVGRPFLDEVTRRVQADFPELFG”, the “soluble fraction (log2)” value is reported as -0.944.
For “HMQDTRSHARKMLAAIEALLEGRSGSDIQAYTIHNRSITKMTVPELVKWRSYYQQQVRSEDAAASLA”, the “soluble fraction (log2)” value was -0.61.
In the case of “HMQDTYLYPVQHNGKVRLQVELPAKGLPEDLVRLALAHPKVVEWLNGRIPTKTIAVPGRIINMVLPNQ”, the “soluble fraction (log2)” value is reported as -0.638.
For “HMQDVWEPFLAKGYVFADGMLTKLIHKRGDVYKTQEIGSDKIIYVIKDGDTFAHGKTVKAAMLDLAFKKS”, the “soluble fraction (log2)” value was -1.5.
With “HMQDYISAEEAKSAALSASQVDSAGAAFSAAELGEKNGIPYYEVAFTADGLEYRYAIDAQTGTVIESSSSG” the “soluble fraction (log2)” value was 0.156.
For HMQEDKVRKLTEMGFAEDQAREALRKHDWDETMALNSL, the “soluble fraction (log2)” value was 0.262.
In the case of “HMQEDSNISFVKIHVDADSGMAHKKLSKLSLPTGFLIVVIIRGEENIIPNGETEVLPGDLLVAAAREFEN”, the “soluble fraction (log2)” value is reported as -1.31.
In the case of “HMQEEELYPRLEEVINQHRGKGEDLIMVLHKAQNLFGYLPRRAQEMVAEGLNVSLNEVYGVITFYNFFST”, the “soluble fraction (log2)” value is reported as 0.194.
For “HMQEERDISFIKIHLEPGHPWRGRALRELMPLKDLLIVMVVRGEDTIVPNGDTRLEEGDLLVLAAYPFEE”, the “soluble fraction (log2)” value was -0.834.
For “HMQEHAHLWRLMEDNRSFKADYIAFENGIVLLQNLSSGKISQYPITDFSIEDQLLILKRHELTAHINAN”, the “soluble fraction (log2)” value was -3.3.
With “HMQEIKPEPISDGRVWKEGMWATTPLGIEGQLLSDPDEKGMVQLGYGNMRININIQDLDPSR” the “soluble fraction (log2)” value was -0.104.
In the case of “HMQEISQEEALATVLKDLSLTEADLKDLQITREEDKYKILFSKGQTAYDVLVSAKDGQLLQSKQETI”, the “soluble fraction (log2)” value is reported as -0.313.
With “HMQEKQIIDGREFYIHQVERGITLYSIAKQYNVKVADIQAENPFLEAGLQPGQTLKIPLDKVETVQEIK” the “soluble fraction (log2)” value was -0.218.
For “HMQEPIAVPDFINKSAVDVLVNPVFTQNFKLVSEDVYDDKVPEGYIVGQSVKSDTLVQPGTEIVIYV”, the “soluble fraction (log2)” value was 0.224.
In the case of “HMQEPNYQPLMQNIKSQDLEEVTRLLSLNDVKFKIDHRTGLLLVESSRVYEAKMKLAATGITD”, the “soluble fraction (log2)” value is reported as -1.07.
For “HMQEPVHFTRRERQVLSLILSGQATAEIAKTLGIANATVTTYKKSLYSKSGTNSLSRLLIWAMVRR”, the “soluble fraction (log2)” value was -0.463.
For “HMQEPVYRPVFPGMTDADRQSAMEALKEGGFSPRLNRQTGQLEVDASGYHEAKIYLASQGIPAE”, the “soluble fraction (log2)” value was 0.0608.
With “HMQERNYIVRRGDTLWDLAKTYYGSGTKYTVIYDANRDNIEAEAKRRGKQSSNGGYWIYPGTELTI” the “soluble fraction (log2)” value was -0.348.
